Measured values as given in US12797409, “Heparan sulfate mimetics to improve glucose clearance” (THE REGENTS OF THE UNIVERSITY OF CALIFORNIA).

T1: Alpl (alkaline phosphatase) (Mus musculus, UniProt P09242 P09242:18-501)
T1 sequence: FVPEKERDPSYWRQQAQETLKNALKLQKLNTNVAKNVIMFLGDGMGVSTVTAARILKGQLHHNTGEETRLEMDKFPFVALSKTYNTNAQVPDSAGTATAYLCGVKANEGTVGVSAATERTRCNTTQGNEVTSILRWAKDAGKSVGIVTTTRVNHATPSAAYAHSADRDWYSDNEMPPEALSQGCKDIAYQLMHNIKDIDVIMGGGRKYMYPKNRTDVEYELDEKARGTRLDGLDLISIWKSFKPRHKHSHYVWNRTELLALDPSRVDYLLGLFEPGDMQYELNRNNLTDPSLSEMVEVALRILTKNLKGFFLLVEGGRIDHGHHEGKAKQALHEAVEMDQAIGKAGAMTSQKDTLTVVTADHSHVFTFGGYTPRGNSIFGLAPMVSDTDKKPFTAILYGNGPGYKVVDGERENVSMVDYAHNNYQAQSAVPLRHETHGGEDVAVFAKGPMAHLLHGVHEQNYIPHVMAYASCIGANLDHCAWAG


Key:
[1] = target: T1, Alpl (alkaline phosphatase); assay: flow; biotinylated aptamer alone on Ext1-/- mouse ES cells; cell-surface binding; conditions: tags: endogenous on Ext1-/- mouse embryonic stem cells; chain copies: 2; G4
[2] = target: T1, Alpl (alkaline phosphatase); assay: flow; Ext1-/- mouse ES cells, 40 min in suspension, 0-200 nM; binding significantly reduced after 6 days of neural differentiation; conditions: tags: endogenous on Ext1-/- mouse embryonic stem cells; chain copies: 2; label: AF488 (on streptavidin); G4

Binder | EC50 [1] | EC50 [2]
AGGTCAGATGAGGAGGGGGACTTAGGACTGGGTTTATGACCTATGCGTG (ssDNA, 5'-biotin) [Aptamer 19S] | ~107 nM | 
AGGTCAGATGAGGAGGGGGACTTAGGACTGGGTTTATGACCTATGCGTG (ssDNA, 5'-biotin, bound to streptavidin carrying biotinylated heparin (1:1:1)) [Hep-SA-19S (heparin-streptavidin-aptamer 19S chimera)] |  | 70 nM
